In US20160152725A1 (Memorial Sloan Kettering, published 2016):
Values belong to the molecule of their own block, whether it stands above or below them.

Columns and labels:
[1] = molecular target: HLA-A2 molecule on the surface of tumor cell lines (human); experiment: flow cytometry on SKN-JC-1 cells (NB)
[2] = molecular target: HLA-A2 molecule on the surface of tumor cell lines (human); experiment: flow cytometry on SKBR3 cells (Breast)
[3] = molecular target: HLA-A2 molecule on the surface of tumor cell lines (human); experiment: flow cytometry on K562 cells (Leukemia)
[4] = molecular target: HLA-A2 molecule on the surface of tumor cell lines (human); experiment: flow cytometry on SKHEP-1 cells (Liver)
[5] = molecular target: HLA-A2 molecule on the surface of tumor cell lines (human); experiment: flow cytometry on MCF-7 cells (Breast)
[6] = molecular target: HLA-A2 molecule on the surface of tumor cell lines (human); experiment: flow cytometry on Colo 205 cells (Colon)
[7] = molecular target: HLA-A2 molecule on the surface of tumor cell lines (human); experiment: flow cytometry on SKN-JC-2 cells (NB)
[8] = molecular target: HLA-A2 molecule on the surface of tumor cell lines (human); experiment: flow cytometry on Caco-2 (HTB-37) cells (Colon)
[9] = molecular target: HLA-A2 molecule on the surface of tumor cell lines (human); experiment: flow cytometry on SKNJB cells (NB)
[10] = molecular target: HLA-A2 molecule on the surface of tumor cell lines (human); experiment: flow cytometry on SKOV-3 cells (Ovarian)
[11] = molecular target: HLA-A2 molecule on the surface of tumor cell lines (human); experiment: flow cytometry on SW480 cells (Colon)
[12] = molecular target: HLA-A2 molecule on the surface of tumor cell lines (human); experiment: flow cytometry on NCI-H345 cells (Small cell lung cancer)
[13] = molecular target: HLA-A2 molecule on the surface of tumor cell lines (human); experiment: flow cytometry on MDA-MB-468(HTB-132) cells (Breast)
[14] = molecular target: HLA-A2 molecule on the surface of tumor cell lines (human); experiment: flow cytometry on HTB37-pp65/GFP cells (Colon)
[15] = molecular target: HLA-A2 molecule on the surface of tumor cell lines (human); experiment: flow cytometry on MDA-MB-361(HTB-27) cells (Breast)
[16] = molecular target: HLA-A2 molecule on the surface of tumor cell lines (human); experiment: flow cytometry on HepG2 cells (Liver)
[17] = molecular target: HLA-A2 molecule on the surface of tumor cell lines (human); experiment: flow cytometry on OVCAR3-pp65 cells (Ovarian)
[18] = molecular target: HLA-A2 molecule on the surface of tumor cell lines (human); experiment: flow cytometry on SKNLD cells (NB)
[19] = molecular target: HLA-A2 molecule on the surface of tumor cell lines (human); experiment: flow cytometry on BV-173 cells (Leukemia)
[20] = molecular target: HLA-A2 molecule on the surface of tumor cell lines (human); experiment: flow cytometry on LAN-1 cells (NB)
[21] = molecular target: HLA-A2 molecule on the surface of tumor cell lines (human); experiment: flow cytometry on K562-HLA-A2 cells (Leukemia)
[22] = molecular target: HLA-A2 molecule on the surface of tumor cell lines (human); experiment: flow cytometry on BA25-69 cells (Leukemia)
[23] = molecular target: HLA-A2 molecule on the surface of tumor cell lines (human); experiment: flow cytometry on BA25-17 cells (Leukemia)
[24] = molecular target: HLA-A2 molecule on the surface of tumor cell lines (human); experiment: flow cytometry on SKMEL-5 cells (Melanoma)
[25] = molecular target: HLA-A2 molecule on the surface of tumor cell lines (human); experiment: flow cytometry on Molt-4 cells (Leukemia)
[26] = molecular target: HLA-A2 molecule on the surface of tumor cell lines (human); experiment: flow cytometry on JN-DSRCT cells (Desmoplastic small round cell tumor)
[27] = molecular target: HLA-A2 molecule on the surface of tumor cell lines (human); experiment: flow cytometry on U2 OS cells (Osteosarcoma)
[28] = molecular target: HLA-A2 molecule on the surface of tumor cell lines (human); experiment: flow cytometry on MDA-MB-231(HTB-26) cells (Breast)
[29] = molecular target: HLA-A2 molecule on the surface of tumor cell lines (human); experiment: flow cytometry on U251 cells (Glioblastoma)
[30] = molecular target: HLA-A2 molecule on the surface of tumor cell lines (human); experiment: flow cytometry on SK-ES-1 cells (Ewing's sarcoma)
[31] = molecular target: HLA-A2 molecule on the surface of tumor cell lines (human); experiment: flow cytometry on NCI-H522 cells (Non-small cell lung cancer)
[32] = molecular target: HLA-A2 molecule on the surface of tumor cell lines (human); experiment: flow cytometry on JMN cells (Mesothelioma)
[33] = molecular target: HLA-A2 molecule on the surface of tumor cell lines (human); experiment: flow cytometry on OVCAR-3 cells (Ovarian)
[34] = molecular target: HLA-A2 molecule on the surface of tumor cell lines (human); experiment: flow cytometry on U87 cells (Glioblastoma)
[35] = molecular target: HLA-A2 molecule on the surface of tumor cell lines (human); experiment: flow cytometry on THP-1 cells (Leukemia)
[36] = molecular target: T1, HLA-A2 on T2 cells (human); experiment: T2 cells pulsed with peptide, staining with anti-HLA-A2 BB7.2
T1 construct: No peptide added; also called T2 cells alone; T2 cells without peptide

[37] = molecular target: T2, biotinylated HLA-A2/WT1126 (…) monomer (human, biotin at a specific biotinylation site at the C-terminus); experiment: SPR Biacore T100; biotinylated pMHC captured, antibody injected; 1:1 fit
T2 construct: also called HLA-A2-WT1 monomer; WT1126/HLA-A2
Method: Kinetics and affinities of various antibodies and WT1₁₂₆/HLA-A2 were analyzed by surface plasmon resonance technology using a Biacore T100 instrument (GE healthcare). Biotinylated WT1₁₂₆/HLA-A2 was captured by streptavidin-fusion protein on a sensor chip (CM5). A control reference surface was prepared for nonspecific binding and refractive index changes. For analysis of the kinetics of interactions, varying concentrations of antibodies were injected at flow rate of 30 μl/min using a running buffer containing 10 mM HEPES, 150 mM NaCl, 3 mM EDTA, and 0.05% Surfactant P-20 (pH 7.4). The association and dissociation phase data were fitted simultaneously to a 1:1 model by using BIAevaluation 3.2. All the experiments were done at 25° C.

[38] = molecular target: HLA-A2/WT1 187-195 (…) complex (human, biotin at a specific biotinylation site at the C-terminus); experiment: ELISA on wells coated with the named HLA-A2/peptide monomer, HRP anti-Flag detection, OD 490 nm
[39] = molecular target: HLA-A2/WT1 235-243 (…) complex (human, biotin at a specific biotinylation site at the C-terminus); experiment: as above
[40] = molecular target: T2, biotinylated HLA-A2/WT1126 (…) monomer; experiment: ELISA: wells coated with HLA-A2-WT1 ([..]) monomer, serially diluted scFv, HRP anti-Flag detection, OD 490 nm
Method: (§1) The specificity of individual phage clones, soluble scFv and scFv-Fc antibodies was assessed by ELISA at RT with indirectly coated HLA-A2/peptide complexes. Vinyl flat bottom microtiter plates (Thermo Fisher) were used for ELISA assays. Plates were initially coated overnight at 4° C. with BSA-biotin (10 g/ml; 50 μl/well). The next day, the contents were discarded and the plates incubated at RT with streptavidin (10 g/ml; 50 μl/well) for 1 h. The contents were discarded and the plates incubated with recombinant biotinylated HLA-A2/peptide complexes (5 μg/ml; 50 μl/well) at RT for 1 h. The plates were then incubated with 2% milk PBS (150 μl/well) at RT for 1 h. After blocking, the plates were washed 3 times with PBS and then incubated with bacterial supernatant from their respective HB2151 culture plate wells, purified scFv, or purified scFv-Fc at RT for 1 h. After the contents were discarded, the plates were washed 5 times with PBS, and then incubated with a horse radish peroxidase (HRP) conjugated mouse-anti-Flag tag antibody (1:5000 dilution, Sigma Aldrich) to detect the scFv, or a HRP conjugated goat-anti-human Fc antibody (0.5 μg/ml, Jackson Immunoresearch Laboratories) to detect the scFv-Fc. […]

[41] = molecular target: T2, biotinylated HLA-A2/WT1126 (…) monomer; experiment: ELISA: wells coated with HLA-A2-WT1 (…) monomer, serially diluted scFv, HRP anti-Flag detection, OD 490 nm
Method: as §1

[42] = molecular target: T3, HLA-A2/CDR2 (…) tetramer (human); experiment: flow cytometry of CAR NK-92 cells, control HLA-A2/CDR2 tetramer (y) against GFP (x)
T3 construct: Peptide from cerebellar degeneration-related protein 2; also called negative control (HLA-A2-CDR2) tetramer; irrelevant HLA-A2/CDR2-derived peptide

Ratio (BB7.2/isotype) of mean fluorescence intensity [1]: 86.8
Ratio (BB7.2/isotype) of mean fluorescence intensity [2]: 1.1
Ratio (BB7.2/isotype) of mean fluorescence intensity [3]: 1.1
Ratio (BB7.2/isotype) of mean fluorescence intensity [4]: 28.3
Ratio (BB7.2/isotype) of mean fluorescence intensity [5]: 9.9
Ratio (BB7.2/isotype) of mean fluorescence intensity [6]: 32.6
Ratio (BB7.2/isotype) of mean fluorescence intensity [7]: 53.3
Ratio (BB7.2/isotype) of mean fluorescence intensity [8]: 26.8
Ratio (BB7.2/isotype) of mean fluorescence intensity [9]: 6.4
Ratio (BB7.2/isotype) of mean fluorescence intensity [10]: 1
Ratio (BB7.2/isotype) of mean fluorescence intensity [11]: 40.5
Ratio (BB7.2/isotype) of mean fluorescence intensity [12]: 6.2
Ratio (BB7.2/isotype) of mean fluorescence intensity [13]: 1.1
Ratio (BB7.2/isotype) of mean fluorescence intensity [14]: 10.9
Ratio (BB7.2/isotype) of mean fluorescence intensity [15]: 0.9
Ratio (BB7.2/isotype) of mean fluorescence intensity [16]: 14.4
Ratio (BB7.2/isotype) of mean fluorescence intensity [17]: 10
Ratio (BB7.2/isotype) of mean fluorescence intensity [18]: 0.9
Ratio (BB7.2/isotype) of mean fluorescence intensity [19]: 209
Ratio (BB7.2/isotype) of mean fluorescence intensity [20]: 4.5
Ratio (BB7.2/isotype) of mean fluorescence intensity [21]: 28.8
Ratio (BB7.2/isotype) of mean fluorescence intensity [22]: 114
Ratio (BB7.2/isotype) of mean fluorescence intensity [23]: 118
Ratio (BB7.2/isotype) of mean fluorescence intensity [24]: 32.1
Ratio (BB7.2/isotype) of mean fluorescence intensity [25]: 1.1
Ratio (BB7.2/isotype) of mean fluorescence intensity [26]: 5.1
Ratio (BB7.2/isotype) of mean fluorescence intensity [27]: 21.7
Ratio (BB7.2/isotype) of mean fluorescence intensity [28]: 111
Ratio (BB7.2/isotype) of mean fluorescence intensity [29]: 16.2
Ratio (BB7.2/isotype) of mean fluorescence intensity [30]: 7.7
Ratio (BB7.2/isotype) of mean fluorescence intensity [31]: 15.8
Ratio (BB7.2/isotype) of mean fluorescence intensity [32]: 165
Ratio (BB7.2/isotype) of mean fluorescence intensity [33]: 7.8
Ratio (BB7.2/isotype) of mean fluorescence intensity [34]: 77.5
Ratio (BB7.2/isotype) of mean fluorescence intensity [35]: 53.9
Molecule: BB7.2 (antibody)

binding result [36]: binds
Molecule: RMFPNAPYL (also called WT1 peptide) [WT1126 peptide (RMFPNAPYL) by itself]

binding result [36]: binds
Molecule: RMFPNAPAL (also called A8) [WT1126-Tyr8Ala peptide]

binding result [36]: binds
Molecule: AMFPNAPYL (also called A1) [WT1126-Arg1Ala peptide]

binding result [36]: binds
Molecule: RMFPAAPYL (also called A5) [WT1126-Asn5Ala peptide]

Kd [37]: 58.3 nM
koff [37]: 0.0055 s⁻¹
kon [37]: 94300 M⁻¹ s⁻¹
B1: Q1L scFv (scFv)
scFv: EVQLLESGGGLVQPGGSLRLSCAASGFTFSSYAMSWVRQAPGKGLEWVSLIDPWGQETLYADSVKGRFTISRDNSKNTLYLQMNSLRAEDTAVYYCAKLTGRFDYWGQGTLVTVSSGGGGSGGGGSGGGGSTDIQMTQSPSSLSASVGDRVTITCRASQSISSYLNWYQQKPGKAPKLLIYSASQLQSGVPSRFSGSGSGTDFTLTISSLQPEDFATYYCQQGPGTPNTFGQGTKVEIKRA
notes: Clone45 with VH-Q50L; Soluble scFv; also called scFv Q1L

binding result [38]: no binding
binding result [39]: no binding
EC50 (read off the curve) [40]: ~40 nM
Kd [37]: 2.43 nM
B2: S3.3 scFv (scFv)
scFv: EVQLLESGGGLVQPGGSLRLSCAASGFTFSSYAMSWVRQAPGKGLEWVSLIDPWGQETLYADSVKGRFTISRDNSKNTLYLQMNSLRAEDTAVYYCAKLTGRFDYWGQGTLVTVSSGGGGSGGGGSGGGGSTNIQMTQSPSSLSASVGDRVTITCRASQSISSYLNWYQQKPGKAPKLLIYSASLLQSGVPSRFSGNGSGTDFTLTISSLQPEDFATYYCQQGPGTPNTFGQGTKVEIKRA
notes: Soluble scFv, Ni-NTA purified, detected with anti-Flag

binding result [38]: no binding
binding result [39]: no binding
EC50 (read off the curve) [40]: ~60 nM
Kd [37]: 12.9 nM
B3: S3.1 scFv (scFv)
scFv: EVQLLESGGGLVQPGGSLRLSCAASGFTFSSYAMSWVRQAPGKGLEWVSLIDPWGQETLYADSVKGRFTISRDNSKNTLYLQMNSLGAEDTAVYYCAKLTGRFDYWGQGTLVTVSSGGGGSGGGGSGGGGSTDIQMTQSPSSLSASVGDRVTITCRASQSISSYLNWYQQKPGKAPKLLIYSASQLQSGVPSRFSGSGSGTDFTLTISNLQPEDFATYYCQQGPGTPNTFGQGTKVEIKRA
notes: as for B2

binding result [38]: no binding
binding result [39]: no binding
Kd [37]: 14.1 nM
B4: S3.6 scFv (scFv)
scFv: EVQLLESGGGLVQPGGSLRLSCAASGFTFSSYAMSWVRQAPGKGLEWVSLIDPWGQETLYADSVKGRFTISRDNSKNTLYLQMNSLRAEDTAVYYCAKLTGRFDYWGQGTLVTVSSGGGGSGGGGSGGGGSTDIQMTQSPSSLSASVGDRVTITCRASQSISNYLNWYQQKPGKAPKLLIYSASQLQSGVPSRFSGSGSGTVFTLTISSLQPEDFATYYCQQGPGTPNTFGQGTKVEIKRA
notes: as for B2

binding result [38]: no binding
binding result [39]: no binding
Kd [37]: 3.08 nM
EC50 (read off the curve) [41]: ~100 nM
B5: Q2L scFv (scFv)
scFv: EVQLLESGGGLVQPGGSLRLSCAASGFTFSSYAMSWVRQAPGKGLEWVSLIDPWGQETLYADSVKGRFTISRDNSKNTLYLQMNSLRAEDTAVYYCAKLTGRFDYWGQGTLVTVSSGGGGSGGGGSGGGGSTDIQMTQSPSSLSASVGDRVTITCRASQSISSYLNWYQQKPGKAPKLLIYSASLLQSGVPSRFSGSGSGTDFTLTISSLQPEDFATYYCQQGPGTPNTFGQGTKVEIKRA
notes: Clone45 with VH-Q50L and VL-Q53L; Soluble scFv; also called scFv Q2L

binding result [42]: no binding
B6: Q2L-CAR (other)
chain: EVQLLESGGGLVQPGGSLRLSCAASGFTFSSYAMSWVRQAPGKGLEWVSLIDPWGQETLYADSVKGRFTISRDNSKNTLYLQMNSLRAEDTAVYYCAKLTGRFDYWGQGTLVTVSSGGGGSGGGGSGGGGSTDIQMTQSPSSLSASVGDRVTITCRASQSISSYLNWYQQKPGKAPKLLIYSASLLQSGVPSRFSGSGSGTDFTLTISSLQPEDFATYYCQQGPGTPNTFGQGTKVEIKRA
notes: Chimeric antigen receptor on the surface of human T cells or NK-92-MI cells; also called anti-HLA-A2/WT1126 CAR; NK-92-MI-scFv(Q2L); not shown: hinge region, CD8 alpha transmembrane domain, 4-1BB and CD3 zeta chain
